Measurements from patent US20120190819A1 (MEDICAL RESEARCH COUNCIL, published 2012).
Changes are numbered by the printed parent chain.

Experiments:
[1] = biological target: T1, SH3 domain of yeast Sho1p (yeast two-hybrid bait, pEG202-Sho1-SH3) (yeast, UniProt P40073 300-367, limits assumed); test: yeast two-hybrid interaction mating
T1 construct: domain: SH3 domain; also called Sho1p SH3 domain
Source text: The yeast genome encodes 25 proteins that between them comprise 28 SH3 domains. Each domain, or combination of domains, was cloned as a yeast two hybrid bait, and tested by interaction mating for its ability to recognise AptA. […] The SH3 domain of Bud14 is a self-activating bait, giving rise to a blue colour even when mated to an empty prey plasmid. […] AptA* is the mutant version of AptA where the two proline residues of the PxxP motif have been changed to alanines (PP/AA). STM is the empty scaffold.

[2] = biological target: the molecule itself; test: gel filtration (self-association, domain-swapped dimer)
Method: (§1) To confirm that the engineered scaffold was correctly folded, we used gel filtration chromatography to ask whether we could detect any denatured or dimerized STM in its native form. Recombinant STM AU1 migrated close to its predicted size and similarly to wild type SteA (FIG. 3, panel A). When the protein preparations were heated to 75° C. before gel filtration, a proportion of SteA migrated as a dimer. […] The CD spectra of native SteA at 25° C. and 50° C. and native STM AU1 at 25° C. and 50° C.

[3] = biological target: the molecule itself; test: SDS-PAGE after 75° C. or ice (self-association)
Method: We wished to ascertain whether we could insert peptides into STM without affecting its stability as a protein. We modelled a peptide aptamer by inserting the six residue “AU1” epitope tag (DTYRYI) (SEQ ID NO: 32) into the engineered loop. We wished to retain the thermostability of SteA but abolish its dimerization by domain-swapping, which is enhanced by heating. We incubated recombinant SteA, STM and STM AU1 at 75° C. or on ice for 20 minutes, and removed any denatured protein by centrifugation. […] As expected, this dimeric form is completely abolished in both STM and STM AU1 (FIG. 2A).

[4] = biological target: T1, SH3 domain of yeast Sho1p (yeast …); test: yeast two-hybrid screen
Source text: Degenerate oligonucleotide cassettes were made by annealing and amplifying P20 and P21 encoding a biased library designed around the Pbs2p proline rich sequence ([…]) (SEQ ID NO: 33) that interacts with the SH3 domain of Sho1p. Translation of the cassette gives X(L/V/P/A)N(K/R)PLP(P/S/A)LP(L/V/P/A)X (SEQ ID NO: 34). At the DNA level, this oligonucleotide should give rise to a library with a theoretical complexity of 98,304. The cassette was ligated into STM pJG4-5, and grown up in XL10 Gold cells (Stratagene). The midi-prepped (Qiagen) DNA was used to create a yeast library of 6×10⁴ cells in EGY48, theoretically covering 60% of the sequences encoded by the library. These cells were mated with EGY42 cells carrying pEG202-Sho1-SH3, made as described above. Interactors were selected on -UHTL/X-Gal/Gal-Raff plates for 4 days, picked and the plasmids rescued into E. coli KC8 cells. The plasmids were transformed back into EGY48 to confirm interaction with the SH3 domain of Sho1p in EGY42 using an interaction-mating matrix.

[5] = biological target: T2, carboxymethylated papain on agarose beads (Calbiochem) (UniProt P00784 134-345, carboxymethylated); test: papain-agarose pull-down, western blot with anti-SteA
T2 construct: also called immobilized papain; papain-agarose beads
T2 sequence (looked up): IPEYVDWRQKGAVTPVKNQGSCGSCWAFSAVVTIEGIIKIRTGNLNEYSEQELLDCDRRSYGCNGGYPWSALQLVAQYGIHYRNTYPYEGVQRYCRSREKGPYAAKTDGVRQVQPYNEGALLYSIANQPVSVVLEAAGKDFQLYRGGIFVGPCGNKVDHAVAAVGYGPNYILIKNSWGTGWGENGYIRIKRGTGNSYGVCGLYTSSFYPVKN
Method: Agarose beads carrying carboxymethylated papain (Calbiochem) were washed three times in EB (equilibration buffer: 50 mM sodium phosphate pH 6.5, 0.5M NaCl, 0.1% non-detergent sulfobetaines). The beads were blocked with 1 mg/ml BSA in EB for 30 mins at 4° C. and washed three more times in EB. 300 μg of recombinant SteA or STM AU1 in 1×TBS buffer was diluted into EB to produce a total of volume of 500 μL and incubated with the beads with turning end over end for 90 mins at 4° C. The beads were then washed three times in EB and resuspended in 50 μl of sample buffer for analysis by 12% SDS-PAGE gel and western blotting using an anti-steA monoclonal antibody (C5/2, Maryland Biosciences).

[6] = biological target: the molecule itself; test: gel filtration after heating to 75° C. (self-association)
Method: as §1

T1 sequence (P40073 300-367 limits assumed): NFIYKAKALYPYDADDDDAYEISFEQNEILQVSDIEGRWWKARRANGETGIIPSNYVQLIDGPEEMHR

B1: AptA* (AptA with the two prolines of the PxxP motif changed to alanines) (designed binder)
chain: MIPWGLSEAKPATPEIQEIVDKVKPQLEEKTNETYGKLEAVQYKTQVDAGTNYYIKVRAGDNKYMHLKVFNGPRLNKPLASLAV
notes: also called AptA PP/AA; AxxA mutation of AptA
- binding result [1]: no binding

B2: wild type Stefin A (human, recombinant) (other)
chain: MIPGGLSEAKPATPEIQEIVDKVKPQLEEKTNETYGKLEAVQYKTQVVAGTNYYIKVRAGDNKYMHLKVFKSLPGQNEDLVLTGYQVDKNKDDELTGF
notes: Expressed in E. coli from pET30a(+) with a hexa-histidine tag; also called SteA; Cystatin A
- binding result [2]: binds

B3: STM (Stefin A Triple Mutant), recombinant, no insert (designed binder)
chain: B2 chain with G4W, V48D, K71N, S72G, L73P
notes: Expressed in E. coli from pET30a(+) with a hexa-histidine tag; also called STM triple mutant
- binding result [3]: no binding

B4: Apt94 (peptide aptamer 094 in truncated STM) (designed binder)
chain: MIPWGLSEAKPATPEIQEIVDKVKPQLEEKTNETYGKLEAVQYKTQVDAGTNYYIKVRAGDNKYMHLKVFNGPANKPLPALPALGSAVE
notes: Truncated by a frame-shift and an out-of-frame stop codon
- binding result [4]: binds

B5: Apt40 (peptide aptamer 040 in truncated STM) (designed binder)
chain: MIPWGLSEAKPATPEIQEIVDKVKPQLEEKTNETYGKLEAVQYKTQVDAGTNYYIKVRAGDNKYMHLKVFNGPVENKPLPALPAVGP
notes: as for B4
- binding result [4]: binds

B6: STM comprising target peptide AU1 epitope (designed binder)
chain: MIPWGLSEAKPATPEIQEIVDKVKPQLEEKTNETYGKLEAVQYKTQVDAGTNYYIKVRAGDNKYMHLKVFNGPDTYRYIGPPGQNEDLVLTGYQVDKNKDDELTGF
notes: Expressed in E. coli from pET30a(+) with a hexa-histidine tag; also called STM AU1; STM/AU1
- binding result [5]: no binding (tested: 300 µg)
- binding result [6]: no binding
